From publication doi:10.1101/695502 (bioRxiv, 2019)
Read-outs that look alike come from different tables or passages of the source.

Assays:
[1] = target: bacterially produced mm PCDH15 EC9-MAD12 (Mus musculus); assay: SEC-SAXS
[2] = target: hs PCDH15 EC1-3 G16D/N369D/Q370N (Homo sapiens)
[3] = target: mm PCDH15 EC1-MAD12 CD1-1 (Mus musculus); assay: SEC-MALS
[4] = target: mm PCDH15 EC1-MAD12 CD1-1 (Mus musculus); assay: SEC-MALS; remark: listed apart in the source
[5] = target: mm PCDH15 EC9-MAD12 (mammalian-expressed, glycosylated) (Mus musculus); assay: SEC-MALS
[6] = target: the molecule itself; assay: AUC

Molecule: bacterially produced mm PCDH15 EC9-MAD12 (domain or fragment)
- stoichiometry N [1]: 2

Molecule: hs PCDH15 EC1-3 G16D/N369D/Q370N (domain or fragment)
- stoichiometry N [2]: 2

Molecule: mm PCDH15 EC1-MAD12 CD1-1 (domain or fragment)
- stoichiometry N [3]: 2
- stoichiometry N [4]: 2

Molecule: mm PCDH15 EC9-MAD12 (mammalian-expressed, glycosylated) (domain or fragment)
- stoichiometry N [5]: 2

B1: hs PCDH15 EC2-3 WT (domain or fragment, Homo sapiens)
chain: NSPTFKHESYYATVNELTPVGTTIFTGFSGDNGATDIDDGPNGQIEYVIQYNPDDPTSNDTFEIPLMLTGNIVLRKRLNYEDKTRYFVIIQANDRAQNLNERRTTTTTLTVDVLDGDDLGPMFLPCVLVPNTRDCRPLTYQAAIPELRTPEELNPIIVTPPIQAIDQDRNIQPPSDRPGILYSILVGTPEDYPRFFHMHPRTAELSLLEPVNRDFHQKFDLVIKAEQDNGHPLPAFAGLHIEILDENN
- Kd [6]: < 1000 nM
- stoichiometry N [6]: 2
